Where a chain is given by its changes, count along the chain named. Numbers in names are those of the source.
T1: FcγRIIa type H extracellular domain with C-terminal His tag (human, UniProt P12318 34-217)
T1 construct: extracellular domain; also called FcgRIIaH; FcγRIIa H
T1 sequence (looked up): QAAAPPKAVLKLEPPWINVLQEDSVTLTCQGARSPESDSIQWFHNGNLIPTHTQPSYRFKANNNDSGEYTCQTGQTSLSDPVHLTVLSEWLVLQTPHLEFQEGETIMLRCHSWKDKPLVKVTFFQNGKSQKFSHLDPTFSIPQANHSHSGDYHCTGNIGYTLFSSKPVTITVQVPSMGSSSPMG

T2: FcγRIIb extracellular domain with C-terminal His tag (human, UniProt P31994 43-217)
T2 construct: extracellular domain; For crystals it was expressed with kifunensine and trimmed with Endo F1; also called FcgRIIb; FcγRIIb extracellular region
T2 sequence (looked up): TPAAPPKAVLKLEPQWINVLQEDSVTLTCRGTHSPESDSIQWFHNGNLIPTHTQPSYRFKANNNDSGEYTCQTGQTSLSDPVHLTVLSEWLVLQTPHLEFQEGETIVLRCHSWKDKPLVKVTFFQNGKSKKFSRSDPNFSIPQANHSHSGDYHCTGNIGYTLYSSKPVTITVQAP

T3: FcγRIIb extracellular domain with C-terminal His tag (human, UniProt P31994 43-217)
T3 construct: extracellular domain; For crystallography it was expressed with kifunensine and trimmed with Endo F1; also called FcgRIIb; FcγRIIb extracellular region; not shown: His tag attached to the C terminus
T3 sequence (looked up): T2 sequence (looked up)

T4: FcγRIIa type H extracellular domain with C-terminal His tag (human, UniProt P12318 34-217)
T4 construct: extracellular domain; also called FcγRIIaH; FcgRIIaH; not shown: His tag attached to the C terminus
T4 sequence (looked up): T1 sequence (looked up)

T5: FcγRIIa type R extracellular domain with C-terminal His tag (human, UniProt P12318 34-217)
T5 chain: T1 sequence (looked up) with H134R

B1: B3 variant of GpH7-B3/GpL16-k0 with Leu at position 328 (EU numbering) substituted with Glu (antibody, human IgG1, kappa)
heavy: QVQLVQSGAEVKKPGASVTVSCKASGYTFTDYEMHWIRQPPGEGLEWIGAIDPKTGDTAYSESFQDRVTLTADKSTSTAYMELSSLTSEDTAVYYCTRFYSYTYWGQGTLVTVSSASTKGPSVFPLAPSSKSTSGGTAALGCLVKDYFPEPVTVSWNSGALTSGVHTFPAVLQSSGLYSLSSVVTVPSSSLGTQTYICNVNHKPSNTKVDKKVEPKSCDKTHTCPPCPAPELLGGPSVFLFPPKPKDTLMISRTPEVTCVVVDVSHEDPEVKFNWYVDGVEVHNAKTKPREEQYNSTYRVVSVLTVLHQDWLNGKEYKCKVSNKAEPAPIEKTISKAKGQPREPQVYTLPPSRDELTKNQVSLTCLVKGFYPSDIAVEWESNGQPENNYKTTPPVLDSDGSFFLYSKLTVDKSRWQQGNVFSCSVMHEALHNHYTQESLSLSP
light: DIVMTQSPLSLPVTPGEPASISCQASESLVHSNRNTYLHWYLQKPGQSPQLLIYKVSNRFSGVPDRFSGSGSGTDFTLKISRVEAEDVGVYYCSQNTHVPPTFGQGTKVEIERTVAAPSVFIFPPSDEQLKSGTASVVCLLNNFYPREAKVQWKVDNALQSGNSQESVTEQDSKDSTYSLSSTLTLSKADYEKHKVYACEVTHQGLSSPVTKSFNRGEC
notes: also called mutation B
B2: IL6R-BP563/IL6R-L (antibody, human IgG1, kappa)
heavy: QVQLQESGPGLVKPSETLSLTCAVSGHSISHDHAWSWVRQPPGEGLEWIGFISYSGITNYNPSLQGRVTISRDNSKNTLYLQMNSLRAEDTAVYYCARSLARTTAMDYWGEGTLVTVSSASTKGPSVFPLAPSSKSTSGGTAALGCLVKDYFPEPVTVSWNSGALTSGVHTFPAVLQSSGLYSLSSVVTVPSSSLGTQTYICNVNHKPSNTKVDKKVEPKSCDKTHTCPPCPAPDLLGDDSVFLFPPKPKDTLMISRTPEVTCVVVDVSEEDGDVKFNWYVDGVEVHNAKTKPREEQDNSTYRVVSVLTVLHQDWLNGKEYKCKVSNKALPRPIEKTISKAKGQPREPQVYTLPPSRDELTKNQVSLTCLVKGFYPSDIAVEWESNGQPENNYKTTPPVLDSDGSFFLYSKLTVDKSRWQQGNVFSCSVMHEALHNHYTQESLSLSP
light: not shown
notes: Anti-human IL-6R IgG1; alterations introduced into IL6R-B3 (G1d with K439E)
B3: IL6R-BP565/IL6R-L (antibody, human IgG1, kappa)
heavy: B2 heavy with S269A, D274E
light: not shown
notes: as for B2

Experiments:
[1] = target: T1, FcγRIIa type H extracellular domain …; assay: SPR (Biacore), relative amount of binding
[2] = target: T2, FcγRIIb extracellular domain with …; assay: SPR (Biacore), relative amount of binding
[3] = target: T3, FcγRIIb extracellular domain with …; assay: SPR; KD for FcγRIIaH divided by KD for FcγRIIb
[4] = target: T3, FcγRIIb extracellular domain with …; assay: SPR; KD for FcγRIIaR divided by KD for FcγRIIb
[5] = target: T6, FcγRIa extracellular domain with C-terminal His tag (human, UniProt P12314 16-292); assay: SPR (Biacore), antibody captured, FcγR as analyte
T6 construct: also called FcgRIa; not shown: His tag attached to the C terminus
T6 sequence (P12314 16-292): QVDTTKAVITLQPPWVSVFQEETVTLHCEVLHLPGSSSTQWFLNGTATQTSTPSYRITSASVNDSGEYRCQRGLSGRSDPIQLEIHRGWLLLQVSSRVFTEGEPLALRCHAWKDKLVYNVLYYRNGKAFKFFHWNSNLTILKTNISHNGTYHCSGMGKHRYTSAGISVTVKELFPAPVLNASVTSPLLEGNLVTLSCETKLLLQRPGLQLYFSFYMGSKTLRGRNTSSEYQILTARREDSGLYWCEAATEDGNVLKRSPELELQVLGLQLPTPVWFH

[6] = target: T4, FcγRIIa type H extracellular domain …; assay: SPR (Biacore), antibody captured, FcγR as analyte
[7] = target: T3, FcγRIIb extracellular domain with …; assay: SPR (Biacore), antibody captured, FcγR as analyte
[8] = target: T5, FcγRIIa type R extracellular domain …; assay: SPR (Biacore), antibody captured, FcγR as analyte
[9] = target: T3, FcγRIIb extracellular domain with …; assay: SPR; KD of IL6R-B3/IL6R-L divided by KD of the variant
[10] = target: T5, FcγRIIa type R extracellular domain …; assay: as above

Row | Binder | binding result [1] | binding result [2] | KD(IIaH)/KD(IIb) [3] | KD(IIaR)/KD(IIb) [4] | Kd [5] [µM] | Kd [6] [µM] | Kd [7] [µM] | Kd [8] [µM] | KD(IIb) of the parent polypeptide/KD(IIb) of the altered polypeptide [9] | KD(IIaR) of the parent polypeptide/KD(IIaR) of the altered polypeptide [10]
1 | B1 | binds | binds |  |  |  |  |  |  |  | 
2 | B2 |  |  | 525 | 29.1 | 0.012 | 8.3 | 0.016 | 0.46 | 196 | 2.4
3 | B3 |  |  | 856 | 41.5 | 0.0024 | 4.7 | 0.0055 | 0.23 | 565 | 4.8

Source: patent US20210261648A1 (published 2021)
